# Results: PMC5477539
# System: DNA polymerase III core (alpha-epsilon-theta) (Escherichia coli)
# Experiment: single-molecule optical tweezers; fit of exonucleolysis initiation rate vs protein concentration (two-step model)
# Conditions: biotinylated oligonucleotide ligated at one end; Optical tweezers buffer, salt, pH and temperature not given in the material; constant template force (55 pN for k2)
substance,measurement,value
primer-template junction of single stretched DNA (8.1 kbp pBACgus11 construct or 38.5 kbp lambda DNA),Kd,0.13 µM
